Experimental findings from publication PMC11746154 (2023) are described below.

The labels stand for the following.
B1: Gal4AD-Rec104 [S. cerevisiae] / LexA-Rec102 [S. cerevisiae] (parent complex)
chain 1: MSIEEEDTNKITCTQDFLHQYFVTERVSIQFGLNNKTVKRINKDEFDKAVNCIMSWTNYPKPGLKRTASTYLLSNSFKKSATVSLPFILGDPVCMPKRVESNNNDTCLLYSDTLYDDPLIQRNDQAGDEIEDEFSFTLLRSEVNEIRPISSSSTAQILQSDYSALMYERQASNGSIFQFSSP
chain 2: MARDITFLTVFLESCGAVNNDEAGKLLSAWTSTVRIEGPESTDSNSLYIPLLPPGMLKIKLNFKMNDRLVTEEQELFTKLREIVGSSIRFWEEQLFYQVQDVSTIENHVILSLKCTILTDAQISTFISKPRELHTHAKGYPEIYYLSELSTTVNFFSKEGNYVEISQVIPHFNEYFSSLIVSQLEFEYPMVFSMISRLRLKWQQSSLAPISYALTSNSVLLPIMLNMIAQDKSSTTAYQILCRRRGPPIQNFQIFSLPAVTYNK

Variants of B1 are the subject of one test. Kind of test: Y2H β-galactosidase assay; parent: 0.97; read off a plot.
For the variant chain 2 S182A, the response is about 0.62 normalized β-gal units. Regarding chain 2 L8A, the response was about 1.4 normalized β-gal units.

As for chain 2 L179A, the response is about 0.1 normalized β-gal units. On the same count and under the same terms, with chain 2 Q183A the figure was about 0.01 normalized β-gal units; with chain 2 V10A, about 0.6 normalized β-gal units. Turning to chain 2 F156A, the response was about 1.5 normalized β-gal units. On the same count and under the same terms, with chain 2 F11A the figure was about 0.9 normalized β-gal units.

Variants of B1 are the subject of a further test. The description is as above. This is another data set of the same source.
With chain 1 F17A, the response was about 0.8 normalized β-gal units. chain 1 I11A: the response was about 0.93 normalized β-gal units. Regarding chain 1 Y21A, the response was about 1.1 normalized β-gal units. Turning to chain 1 K10A, the response is about 0.83 normalized β-gal units. As to chain 1 F31A, the response was about 1.6 normalized β-gal units. As to chain 1 L33A, the response was about 0.87 normalized β-gal units. Still for that read-out and setting: the result for chain 1 T12A reads about 0.75 normalized β-gal units; that for chain 1 L18A, about 0.75 normalized β-gal units; that for chain 1 I53A, about 1.1 normalized β-gal units. As to chain 1 V50A, the response was about 1.2 normalized β-gal units.
